# Measured values taken from the Immune Epitope Database (IEDB).
# Key:
# HLA-B*44:02 = experiment: IEDB peptide-MHC binding, purified MHC/direct/fluorescence; filed as Kd, often an IC50 or EC50 that approximates it; ≥ and ≤ were set here for values at or beyond the usual limits of such assays
# HLA-A*11:01 = experiment: as above
# HLA-B*15:01 [1] = experiment: as above
# HLA-B*58:01 = experiment: as above
# HLA-A*31:01 [2] = experiment: as above
# HLA-B*08:02 = experiment: as above
# HLA-B*08:01 = experiment: as above; conditions: source organism: Vibrio parahaemolyticus AQ3810
# HLA-A*24:02 = experiment: as above
# HLA-B*15:09 = experiment: as above
# HLA-A*02:01 [3] = experiment: as above
# HLA-A*03:01 [4] = experiment: as above
# HLA-B*40:01 = experiment: as above
# HLA-A*01:01 = experiment: as above
# HLA-B*27:05 = experiment: as above
# HLA-A*69:01 [5] = experiment: as above
# HLA-B*07:02 = experiment: as above
# HLA-B*18:01 [6] = experiment: as above
# HLA-B*46:01 [7] = experiment: as above
# HLA-A*02:12 [8] = experiment: IEDB peptide-MHC binding, purified MHC/competitive/fluorescence; filed as Kd, often an IC50 or EC50 that approximates it; ≥ and ≤ were set here for values at or beyond the usual limits of such assays
# HLA-B*15:17 = experiment: as above; conditions: source organism: Entamoeba histolytica HM-1:IMSS
# HLA-A*68:02 = experiment: as above
# HLA-A*02:03 = experiment: as above
# HLA-B*15:01 [9] = experiment: as above
# HLA-B*39:01 = experiment: as above
# HLA-B*51:01 [10] = experiment: as above
# HLA-B*18:01 [11] = experiment: as above
# HLA-A*02:16 = experiment: as above
# HLA-A*02:01 [12] = experiment: as above
# HLA-A*03:01 [13] = experiment: as above; conditions: source organism: Entamoeba histolytica HM-1:IMSS
# HLA-A*02:19 = experiment: as above
# HLA-B*27:03 = experiment: as above
# HLA-B*57:01 = experiment: as above
# HLA-A*29:02 = experiment: as above
# HLA-A*24:03 = experiment: as above
# HLA-A*02:11 = experiment: as above
# HLA-A*26:01 = experiment: as above
# HLA-A*69:01 [14] = experiment: as above
# HLA-B*46:01 [15] = experiment: as above
# HLA-C*12:03 = experiment: IEDB peptide-MHC binding, purified MHC/direct/fluorescence; filed as Kd, often an IC50 or EC50 that approximates it; ≥ and ≤ were set here for values at or beyond the usual limits of such assays; conditions: source organism: human gammaherpesvirus 4
# HLA-B*51:01 [16] = experiment: as above
# HLA-C*03:03 = experiment: as above
# HLA-A*31:01 [17] = experiment: IEDB peptide-MHC binding, purified MHC/competitive/fluorescence; filed as Kd, often an IC50 or EC50 that approximates it; ≥ and ≤ were set here for values at or beyond the usual limits of such assays; conditions: source organism: Cryptosporidium parvum Iowa II
# HLA-A*02:12 [18] = experiment: IEDB peptide-MHC binding, purified MHC/direct/fluorescence; filed as Kd, often an IC50 or EC50 that approximates it; ≥ and ≤ were set here for values at or beyond the usual limits of such assays; conditions: source organism: Ravn virus - Ravn, Kenya, 1987
# [19] = source organism: Vibrio parahaemolyticus
# [20] = source organism: Vibrio parahaemolyticus AQ3810
# [21] = source organism: Coxiella burnetii
# [22] = source organism: Entamoeba histolytica HM-1:IMSS
# [23] = source organism: Rickettsia bellii
# [24] = source organism: Cryptosporidium parvum Iowa II
# [25] = source organism: dengue virus type 4
# [26] = source organism: Marburg virus - Musoke, Kenya, 1980
sequence,measurement,setting,value
MLDQFGVSY,Kd,HLA-B*44:02; [19],≥ 20 µM
same,Kd,HLA-A*11:01; [19],≥ 20 µM
same,Kd,HLA-B*15:01 [1]; [19],0.143 µM
same,Kd,HLA-B*58:01; [19],≥ 20 µM
same,Kd,HLA-A*31:01 [2]; [19],≥ 20 µM
same,Kd,HLA-B*08:02; [20],≥ 20 µM
same,Kd,HLA-B*08:01,≥ 20 µM
same,Kd,HLA-A*24:02; [19],≥ 20 µM
same,Kd,HLA-B*15:09; [20],≥ 20 µM
same,Kd,HLA-A*02:01 [3]; [19],≥ 20 µM
same,Kd,HLA-A*03:01 [4]; [19],≥ 20 µM
same,Kd,HLA-B*40:01; [19],≥ 20 µM
same,Kd,HLA-A*01:01; [19],0.021 µM
same,Kd,HLA-B*27:05; [19],≥ 20 µM
same,Kd,HLA-A*69:01 [5]; [19],≥ 20 µM
same,Kd,HLA-B*07:02; [19],≥ 20 µM
AISRLRTQK,Kd,HLA-B*44:02; [21],≥ 20 µM
same,Kd,HLA-A*11:01; [21],0.0995 µM
same,Kd,HLA-B*15:01 [1]; [21],≥ 20 µM
same,Kd,HLA-B*58:01; [21],≥ 20 µM
same,Kd,HLA-A*31:01 [2]; [21],0.344 µM
same,Kd,HLA-B*08:02; source organism: Coxiella burnetii Q321,≥ 20 µM
same,Kd,HLA-B*18:01 [6]; [21],≥ 20 µM
same,Kd,HLA-A*24:02; [21],≥ 20 µM
same,Kd,HLA-A*02:01 [3]; [21],≥ 20 µM
same,Kd,HLA-A*03:01 [4]; [21],0.386 µM
same,Kd,HLA-B*40:01; [21],≥ 20 µM
same,Kd,HLA-A*01:01; [21],≥ 20 µM
same,Kd,HLA-B*27:05; [21],≥ 20 µM
same,Kd,HLA-A*69:01 [5]; [21],≥ 20 µM
same,Kd,HLA-B*07:02; [21],≥ 20 µM
same,Kd,HLA-B*46:01 [7]; [21],≥ 20 µM
IEAKINVAD,Kd,HLA-A*02:12 [8]; [22],≥ 20 µM
same,Kd,HLA-B*15:17,≥ 20 µM
same,Kd,HLA-A*68:02; [22],≥ 20 µM
same,Kd,HLA-A*02:03; [22],≥ 20 µM
same,Kd,HLA-B*15:01 [9]; [22],≥ 20 µM
same,Kd,HLA-B*39:01; [22],≥ 20 µM
same,Kd,HLA-B*51:01 [10]; [22],≥ 20 µM
same,Kd,HLA-B*18:01 [11]; [22],0.389 µM
same,Kd,HLA-A*02:16; [22],≥ 20 µM
same,Kd,HLA-A*02:01 [12]; [22],≥ 20 µM
same,Kd,HLA-A*03:01 [13],≥ 20 µM
same,Kd,HLA-A*02:19; [22],≥ 20 µM
same,Kd,HLA-B*27:03; [22],≥ 20 µM
same,Kd,HLA-B*57:01; [22],≥ 20 µM
same,Kd,HLA-A*29:02; [22],≥ 20 µM
same,Kd,HLA-A*24:03; [22],≥ 20 µM
same,Kd,HLA-A*02:11; [22],≥ 20 µM
same,Kd,HLA-A*26:01; [22],≥ 20 µM
same,Kd,HLA-A*69:01 [14]; [22],≥ 20 µM
same,Kd,HLA-B*46:01 [15]; [22],≥ 20 µM
NIDPEHLDY,Kd,HLA-B*44:02; [23],≥ 20 µM
same,Kd,HLA-A*11:01; [23],≥ 20 µM
same,Kd,HLA-B*15:01 [1]; [23],≥ 20 µM
same,Kd,HLA-B*58:01; [23],≥ 20 µM
same,Kd,HLA-A*31:01 [2]; [23],≥ 20 µM
same,Kd,HLA-B*18:01 [6]; [23],≥ 20 µM
same,Kd,HLA-A*24:02; [23],≥ 20 µM
same,Kd,HLA-B*15:09; source organism: Rickettsia typhi str. Wilmington,≥ 20 µM
same,Kd,HLA-A*02:01 [3]; [23],≥ 20 µM
same,Kd,HLA-A*03:01 [4]; [23],≥ 20 µM
same,Kd,HLA-B*40:01; [23],≥ 20 µM
same,Kd,HLA-A*01:01; [23],0.0326 µM
same,Kd,HLA-B*27:05; [23],≥ 20 µM
same,Kd,HLA-A*69:01 [5]; [23],≥ 20 µM
same,Kd,HLA-B*07:02; [23],≥ 20 µM
same,Kd,HLA-B*46:01 [7]; [23],≥ 20 µM
SQAPLPCVL,Kd,HLA-C*12:03,0.554 µM
LANYAFFAI,Kd,HLA-B*51:01 [16]; source organism: Streptococcus pneumoniae,0.23 µM
same,Kd,HLA-C*03:03; source organism: Streptococcus pneumoniae R6,≤ 0.001 µM
RGRKPIFRK,Kd,HLA-A*02:12 [8]; [24],≥ 20 µM
same,Kd,HLA-A*68:02; [24],≥ 20 µM
same,Kd,HLA-A*02:03; [24],≥ 20 µM
same,Kd,HLA-B*15:01 [9]; [24],≥ 20 µM
same,Kd,HLA-B*39:01; [24],≥ 20 µM
same,Kd,HLA-B*51:01 [10]; [24],≥ 20 µM
same,Kd,HLA-A*31:01 [17],0.0532 µM
same,Kd,HLA-B*18:01 [11]; [24],≥ 20 µM
same,Kd,HLA-A*02:16; [24],≥ 20 µM
same,Kd,HLA-A*02:01 [12]; [24],≥ 20 µM
same,Kd,HLA-A*02:19; [24],≥ 20 µM
same,Kd,HLA-B*27:03; [24],≥ 20 µM
same,Kd,HLA-B*57:01; [24],≥ 20 µM
same,Kd,HLA-A*29:02; [24],≥ 20 µM
same,Kd,HLA-A*24:03; [24],≥ 20 µM
same,Kd,HLA-A*02:11; [24],≥ 20 µM
same,Kd,HLA-A*26:01; [24],≥ 20 µM
same,Kd,HLA-A*69:01 [14]; [24],≥ 20 µM
same,Kd,HLA-B*46:01 [15]; [24],≥ 20 µM
ILRNPGFAL,Kd,HLA-B*51:01 [16]; [25],≥ 20 µM
same,Kd,HLA-C*03:03; [25],0.211 µM
YMQQVSEGL,Kd,HLA-A*02:12 [18],0.002 µM
same,Kd,HLA-C*03:03; source organism: Orthomarburgvirus marburgense,0.498 µM
same,Kd,HLA-A*02:01 [3]; [26],0.153 µM
same,Kd,HLA-A*69:01 [5]; [26],1.38 µM
